The values that follow come from US20230331823A1.

In experiment [1] the target is SARS-CoV-2 stabilized Spike trimer (S-2P) (SARS-CoV-2) (UniProt P0DTC2).
In experiment [2] the target is SARS-CoV-2 RBD (pCoV08, RBD-His6) (SARS-CoV-2 (Wuhan-Hu-1)) (UniProt P0DTC2). Put plainly: BLI, RBD on probe, antibody, then hACE2 (blocked ligand).

Consider CR3022 (antibody), for which the values for the EC50 (read off the curve) in experiment [1] and in experiment [2] were 30 µg/mL and 10 µg/mL, respectively.
